# System: Escherichia coli TOP10
# Test: shrunken log2 fold change of peptide-encoding DNA abundance (4.5 h post-induction vs induction); higher = less antimicrobial activity (less host growth inhibition)
# Conditions: time post-induction: 4.5 h; library: site-saturation at positions 5, 18, 19, 20
# 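Note: peptides expressed intracellularly from a pBAD plasmid library in pooled LB shake-flask culture, induced with 0.3% L-arabinose, DNA abundance read by NGS, three biological replicates, DESeq2 with apeglm shrinkage.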
row,Sequence,shrunken log2 fold change
1,RRIRSRPPRLPRPRPRPGWQPRP,-0.339
2,RRIRSRPPRLPRPRPRPHADPRP,0.121
3,RRIRSRPPRLPRPRPRPHAEPRP,0.156
4,RRIRSRPPRLPRPRPRPHANPRP,-0.168
5,RRIRSRPPRLPRPRPRPHCCPRP,0.022
6,RRIRSRPPRLPRPRPRPHDEPRP,0.0683
7,RRIRSRPPRLPRPRPRPHEPPRP,-0.154
8,RRIRSRPPRLPRPRPRPHGDPRP,0.043
9,RRIRSRPPRLPRPRPRPHGKPRP,-0.18
10,RRIRSRPPRLPRPRPRPHGWPRP,-0.107
11,RRIRSRPPRLPRPRPRPHHHPRP,-0.736
12,RRIRSRPPRLPRPRPRPHIGPRP,-0.0154
13,RRIRSRPPRLPRPRPRPHKFPRP,0.00286
14,RRIRSRPPRLPRPRPRPHKTPRP,-0.258
15,RRIRSRPPRLPRPRPRPHLQPRP,0.0575
16,RRIRSRPPRLPRPRPRPHMHPRP,-0.202
17,RRIRSRPPRLPRPRPRPHNHPRP,-0.576
18,RRIRSRPPRLPRPRPRPHNIPRP,-0.211
19,RRIRSRPPRLPRPRPRPHPCPRP,0.0687
20,RRIRSRPPRLPRPRPRPHPDPRP,-0.0132
21,RRIRSRPPRLPRPRPRPHPPPRP,0.436
22,RRIRSRPPRLPRPRPRPHQMPRP,-0.207
23,RRIRSRPPRLPRPRPRPHRLPRP,-0.288
24,RRIRSRPPRLPRPRPRPHTMPRP,-0.163
25,RRIRSRPPRLPRPRPRPHWEPRP,-0.0851

row,Sequence,shrunken log2 fold change
1,RRIRSRPPRLPRPRPRPIALPRP,-0.385
2,RRIRSRPPRLPRPRPRPIDWPRP,0.217
3,RRIRSRPPRLPRPRPRPIFLPRP,-0.335
4,RRIRSRPPRLPRPRPRPIGAPRP,0.058
5,RRIRSRPPRLPRPRPRPIGEPRP,-0.017
6,RRIRSRPPRLPRPRPRPIGLPRP,0.074
7,RRIRSRPPRLPRPRPRPIKKPRP,0.234
8,RRIRSRPPRLPRPRPRPIKLPRP,0.0994
9,RRIRSRPPRLPRPRPRPIMGPRP,-0.0258
10,RRIRSRPPRLPRPRPRPINSPRP,0.0337
11,RRIRSRPPRLPRPRPRPIPIPRP,0.159
12,RRIRSRPPRLPRPRPRPIPNPRP,-0.432
13,RRIRSRPPRLPRPRPRPIPPPRP,-0.0431
14,RRIRSRPPRLPRPRPRPIPRPRP,0.202
15,RRIRSRPPRLPRPRPRPIPVPRP,-0.208
16,RRIRSRPPRLPRPRPRPIQSPRP,-0.0288
17,RRIRSRPPRLPRPRPRPIRHPRP,-0.0283
18,RRIRSRPPRLPRPRPRPIRIPRP,-0.405
19,RRIRSRPPRLPRPRPRPIRRPRP,0.011
20,RRIRSRPPRLPRPRPRPITEPRP,0.0453
21,RRIRSRPPRLPRPRPRPIVHPRP,-0.2
22,RRIRSRPPRLPRPRPRPKAFPRP,-0.0206
23,RRIRSRPPRLPRPRPRPKAMPRP,-0.148
24,RRIRSRPPRLPRPRPRPKCAPRP,0.0261
25,RRIRSRPPRLPRPRPRPKCQPRP,0.607

row,Sequence,shrunken log2 fold change
1,RRIRSRPPRLPRPRPRPKDPPRP,0.226
2,RRIRSRPPRLPRPRPRPKEHPRP,0.0336
3,RRIRSRPPRLPRPRPRPKFMPRP,-0.0581
4,RRIRSRPPRLPRPRPRPKGHPRP,-0.000921
5,RRIRSRPPRLPRPRPRPKGPPRP,-0.00375
6,RRIRSRPPRLPRPRPRPKGSPRP,0.0118
7,RRIRSRPPRLPRPRPRPKHHPRP,-0.387
8,RRIRSRPPRLPRPRPRPKKRPRP,0.716
9,RRIRSRPPRLPRPRPRPKKVPRP,-0.00648
10,RRIRSRPPRLPRPRPRPKLCPRP,0.0502
11,RRIRSRPPRLPRPRPRPKNCPRP,-0.149
12,RRIRSRPPRLPRPRPRPKNDPRP,-0.372
13,RRIRSRPPRLPRPRPRPKNWPRP,0.176
14,RRIRSRPPRLPRPRPRPKPLPRP,-0.107
15,RRIRSRPPRLPRPRPRPKQKPRP,-0.000384
16,RRIRSRPPRLPRPRPRPKRRPRP,0.33
17,RRIRSRPPRLPRPRPRPKTFPRP,-0.24
18,RRIRSRPPRLPRPRPRPKTSPRP,0.187
19,RRIRSRPPRLPRPRPRPKVRPRP,0.0559
20,RRIRSRPPRLPRPRPRPKVTPRP,-0.173
21,RRIRSRPPRLPRPRPRPKWHPRP,0.0951
22,RRIRSRPPRLPRPRPRPKWPPRP,0.146
23,RRIRSRPPRLPRPRPRPKYHPRP,-0.601
24,RRIRSRPPRLPRPRPRPLADPRP,-0.0259
25,RRIRSRPPRLPRPRPRPLAYPRP,0.0208

row,Sequence,shrunken log2 fold change
1,RRIRSRPPRLPRPRPRPLCGPRP,0.0948
2,RRIRSRPPRLPRPRPRPLDWPRP,0.262
3,RRIRSRPPRLPRPRPRPLEKPRP,-0.0565
4,RRIRSRPPRLPRPRPRPLFDPRP,-0.335
5,RRIRSRPPRLPRPRPRPLFKPRP,-0.127
6,RRIRSRPPRLPRPRPRPLFLPRP,-0.00337
7,RRIRSRPPRLPRPRPRPLGIPRP,-0.036
8,RRIRSRPPRLPRPRPRPLGRPRP,0.351
9,RRIRSRPPRLPRPRPRPLGSPRP,0.193
10,RRIRSRPPRLPRPRPRPLIQPRP,-0.319
11,RRIRSRPPRLPRPRPRPLIYPRP,-0.546
12,RRIRSRPPRLPRPRPRPLLKPRP,0.253
13,RRIRSRPPRLPRPRPRPLLPPRP,0.405
14,RRIRSRPPRLPRPRPRPLMFPRP,-0.321
15,RRIRSRPPRLPRPRPRPLMIPRP,-0.764
16,RRIRSRPPRLPRPRPRPLMWPRP,0.169
17,RRIRSRPPRLPRPRPRPLNAPRP,0.213
18,RRIRSRPPRLPRPRPRPLNFPRP,-0.305
19,RRIRSRPPRLPRPRPRPLNHPRP,-0.554
20,RRIRSRPPRLPRPRPRPLPCPRP,-0.00277
21,RRIRSRPPRLPRPRPRPLPVPRP,0.0687
22,RRIRSRPPRLPRPRPRPLQPPRP,0.474
23,RRIRSRPPRLPRPRPRPLQTPRP,0.436
24,RRIRSRPPRLPRPRPRPLRHPRP,0.375
25,RRIRSRPPRLPRPRPRPLRIPRP,-0.0455

row,Sequence,shrunken log2 fold change
1,RRIRSRPPRLPRPRPRPLVQPRP,-0.0825
2,RRIRSRPPRLPRPRPRPLVTPRP,0.0214
3,RRIRSRPPRLPRPRPRPLWGPRP,-0.00343
4,RRIRSRPPRLPRPRPRPLWHPRP,-0.289
5,RRIRSRPPRLPRPRPRPLWTPRP,0.0886
6,RRIRSRPPRLPRPRPRPLWVPRP,0.0823
7,RRIRSRPPRLPRPRPRPLYNPRP,-0.344
8,RRIRSRPPRLPRPRPRPLYSPRP,-0.442
9,RRIRSRPPRLPRPRPRPMAAPRP,1.8
10,RRIRSRPPRLPRPRPRPMAPPRP,0.257
11,RRIRSRPPRLPRPRPRPMATPRP,0.0201
12,RRIRSRPPRLPRPRPRPMDEPRP,0.0216
13,RRIRSRPPRLPRPRPRPMDWPRP,-0.0477
14,RRIRSRPPRLPRPRPRPMEEPRP,-0.01
15,RRIRSRPPRLPRPRPRPMEQPRP,-0.00992
16,RRIRSRPPRLPRPRPRPMERPRP,-0.0898
17,RRIRSRPPRLPRPRPRPMFGPRP,-0.325
18,RRIRSRPPRLPRPRPRPMFLPRP,-0.595
19,RRIRSRPPRLPRPRPRPMFWPRP,0.332
20,RRIRSRPPRLPRPRPRPMFYPRP,-0.544
21,RRIRSRPPRLPRPRPRPMHKPRP,-0.112
22,RRIRSRPPRLPRPRPRPMILPRP,0.0266
23,RRIRSRPPRLPRPRPRPMIRPRP,0.0902
24,RRIRSRPPRLPRPRPRPMMPPRP,-0.0787
25,RRIRSRPPRLPRPRPRPMMRPRP,0.836

row,Sequence,shrunken log2 fold change
1,RRIRSRPPRLPRPRPRPMNHPRP,-0.256
2,RRIRSRPPRLPRPRPRPMNSPRP,-0.776
3,RRIRSRPPRLPRPRPRPMPEPRP,0.376
4,RRIRSRPPRLPRPRPRPMRAPRP,0.706
5,RRIRSRPPRLPRPRPRPMRCPRP,0.361
6,RRIRSRPPRLPRPRPRPMTCPRP,0.04
7,RRIRSRPPRLPRPRPRPMTEPRP,0.0273
8,RRIRSRPPRLPRPRPRPMTGPRP,0.00381
9,RRIRSRPPRLPRPRPRPMVGPRP,0.158
10,RRIRSRPPRLPRPRPRPMVIPRP,-0.0364
11,RRIRSRPPRLPRPRPRPMVPPRP,-0.0173
12,RRIRSRPPRLPRPRPRPMVTPRP,-0.134
13,RRIRSRPPRLPRPRPRPMWQPRP,-0.175
14,RRIRSRPPRLPRPRPRPMYAPRP,-0.29
15,RRIRSRPPRLPRPRPRPNANPRP,0.0564
16,RRIRSRPPRLPRPRPRPNDTPRP,-0.437
17,RRIRSRPPRLPRPRPRPNEFPRP,0.00763
18,RRIRSRPPRLPRPRPRPNEHPRP,-0.655
19,RRIRSRPPRLPRPRPRPNEIPRP,-0.12
20,RRIRSRPPRLPRPRPRPNEQPRP,0.0903
21,RRIRSRPPRLPRPRPRPNFDPRP,0.221
22,RRIRSRPPRLPRPRPRPNGAPRP,-0.299
23,RRIRSRPPRLPRPRPRPNGLPRP,-0.0247
24,RRIRSRPPRLPRPRPRPNGVPRP,-0.00885
25,RRIRSRPPRLPRPRPRPNGWPRP,0.623
